In test [1] the target is UNC5H-2 (rat homologue of UNC-5) (rat) (UniProt O08722). The test can be described thus: equilibrium binding, curves fitted to the Hill equation.
The target of test [2] is UNC5H-1 (rat homologue of UNC-5) (rat) (UniProt O08721). The description is as above.
UniProt O08721, sequence (O08721 26-898 limits assumed, form in doubt): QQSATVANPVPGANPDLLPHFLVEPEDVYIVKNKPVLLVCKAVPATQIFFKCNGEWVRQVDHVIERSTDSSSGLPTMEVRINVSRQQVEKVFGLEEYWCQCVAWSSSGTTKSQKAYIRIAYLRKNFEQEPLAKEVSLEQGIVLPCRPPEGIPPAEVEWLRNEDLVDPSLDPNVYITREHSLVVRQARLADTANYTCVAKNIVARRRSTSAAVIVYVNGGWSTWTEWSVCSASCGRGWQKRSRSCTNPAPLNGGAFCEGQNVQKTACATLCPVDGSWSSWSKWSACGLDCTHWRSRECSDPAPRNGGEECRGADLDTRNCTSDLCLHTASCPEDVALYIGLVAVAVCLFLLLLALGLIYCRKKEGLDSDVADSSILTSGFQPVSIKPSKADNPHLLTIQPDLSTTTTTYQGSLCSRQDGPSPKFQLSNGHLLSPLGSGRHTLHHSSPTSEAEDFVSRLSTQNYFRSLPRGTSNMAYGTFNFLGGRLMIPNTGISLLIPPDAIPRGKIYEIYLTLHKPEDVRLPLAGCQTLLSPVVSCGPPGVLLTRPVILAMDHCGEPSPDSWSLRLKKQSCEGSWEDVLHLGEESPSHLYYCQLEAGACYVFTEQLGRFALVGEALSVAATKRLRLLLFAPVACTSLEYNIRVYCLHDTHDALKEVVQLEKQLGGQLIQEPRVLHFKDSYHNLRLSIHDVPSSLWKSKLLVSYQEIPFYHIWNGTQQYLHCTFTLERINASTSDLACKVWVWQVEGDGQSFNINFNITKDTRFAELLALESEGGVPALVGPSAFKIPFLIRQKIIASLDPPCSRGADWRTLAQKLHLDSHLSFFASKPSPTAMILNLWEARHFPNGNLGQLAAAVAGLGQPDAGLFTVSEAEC

Consider netrin(VIoV)-Fc (Fc fusion), for which the values for the Kd in test [1] and in test [2] were 3.4 nM and 19 nM, respectively.
